Key:
Experiment in all cases: cell-based or functional assay
[1] = biological target: human complement component C9 (human, UniProt P02748 22-559)
[2] = biological target: human complement component C8, beta chain (human, UniProt P07358 55-591)
[3] = biological target: human complement component C8, alpha chain (human, UniProt P07357 31-584)

Measured: reduction of alternative-pathway complement-mediated lysis of rabbit erythrocytes by 6% normal guinea pig serum, 0 to 40 µg rTs-Pmy (55.7% at 10 µg)

human complement component C8, alpha chain, sequence (P07357 31-584): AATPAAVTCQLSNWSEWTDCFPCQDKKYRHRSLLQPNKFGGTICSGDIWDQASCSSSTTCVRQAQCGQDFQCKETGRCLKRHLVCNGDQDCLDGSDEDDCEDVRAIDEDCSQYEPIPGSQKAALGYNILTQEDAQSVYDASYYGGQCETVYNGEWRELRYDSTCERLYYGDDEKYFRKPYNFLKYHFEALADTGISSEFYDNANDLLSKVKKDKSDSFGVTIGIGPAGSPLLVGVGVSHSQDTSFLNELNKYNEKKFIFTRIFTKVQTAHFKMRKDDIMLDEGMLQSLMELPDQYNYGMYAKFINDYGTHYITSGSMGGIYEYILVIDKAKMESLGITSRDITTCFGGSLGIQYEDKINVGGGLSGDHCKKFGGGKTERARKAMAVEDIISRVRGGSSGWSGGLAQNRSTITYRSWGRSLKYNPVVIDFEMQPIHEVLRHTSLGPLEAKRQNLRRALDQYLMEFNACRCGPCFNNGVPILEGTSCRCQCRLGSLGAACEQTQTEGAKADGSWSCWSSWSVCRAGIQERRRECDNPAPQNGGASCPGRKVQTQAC
human complement component C8, beta chain, sequence (P07358 55-591): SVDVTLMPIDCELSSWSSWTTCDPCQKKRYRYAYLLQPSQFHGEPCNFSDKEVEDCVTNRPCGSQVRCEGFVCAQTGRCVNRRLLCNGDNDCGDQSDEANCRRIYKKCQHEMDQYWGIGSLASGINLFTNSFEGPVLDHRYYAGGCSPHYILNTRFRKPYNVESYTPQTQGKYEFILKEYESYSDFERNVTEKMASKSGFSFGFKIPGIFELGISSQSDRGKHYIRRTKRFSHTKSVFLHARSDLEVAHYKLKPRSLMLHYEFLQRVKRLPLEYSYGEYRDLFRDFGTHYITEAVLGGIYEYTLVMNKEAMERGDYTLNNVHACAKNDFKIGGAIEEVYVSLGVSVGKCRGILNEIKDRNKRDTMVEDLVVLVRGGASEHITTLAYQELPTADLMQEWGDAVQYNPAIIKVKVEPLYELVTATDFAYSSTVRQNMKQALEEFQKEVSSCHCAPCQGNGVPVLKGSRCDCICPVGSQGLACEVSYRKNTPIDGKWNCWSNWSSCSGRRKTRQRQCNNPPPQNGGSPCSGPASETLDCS
human complement component C9, sequence (P02748 22-559): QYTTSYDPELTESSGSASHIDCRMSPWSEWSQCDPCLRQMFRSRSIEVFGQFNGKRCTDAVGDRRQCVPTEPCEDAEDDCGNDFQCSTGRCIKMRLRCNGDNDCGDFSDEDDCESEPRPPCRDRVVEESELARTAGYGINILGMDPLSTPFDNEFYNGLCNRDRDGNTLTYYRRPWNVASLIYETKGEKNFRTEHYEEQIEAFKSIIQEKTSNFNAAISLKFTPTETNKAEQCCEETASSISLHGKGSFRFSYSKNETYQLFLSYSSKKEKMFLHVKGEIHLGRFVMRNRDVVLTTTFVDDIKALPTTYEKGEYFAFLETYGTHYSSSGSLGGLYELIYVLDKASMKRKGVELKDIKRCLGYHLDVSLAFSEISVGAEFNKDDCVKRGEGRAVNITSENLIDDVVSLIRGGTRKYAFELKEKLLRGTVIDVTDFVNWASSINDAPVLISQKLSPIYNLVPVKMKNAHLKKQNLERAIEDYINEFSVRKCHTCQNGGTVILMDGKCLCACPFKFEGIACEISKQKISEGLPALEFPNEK

B1: recombinant Trichinella spiralis paramyosin (natural protein)
chain: MSLYRSPSASVMRSASMLSRSGGFDAYGFGGYGAPSLNVADLGSLTRLEDKIRLLQDDLETERELRNRIERERADLSCQLISLTDRLEEAEGTTDAQIDANRKRESELQKLRKILEDSQLESEDSLNQLRKKHQESLLDYQQQIEQLQKKNSKIDRERQRLQHEVIELTAGIDQMQKDKHAAEKAAEKHEAHARELQNRVDDLAKNLNDLASQRQRLQQENNDLMKELHDVKVQMENIQHVKTQLAQQLEEARRRLEDAERERSQMQTQLHQMQLELDSIQGALEEESSARAEAEHKLSLANTEISQWKSKFDAEVSLHQEEVDDLRKKMIQKQAEYEEQIEIMLQKISQLEKAKSRLQSEVEVLIVDLEKAQSTIAILERQKEQLERMVAEMKTRLDEVTQELEATQRELRATQAELQKMKHLYEKAVEQKEALARENKKLQDDLHEAKEALADANRKLHELDLENARLAGEIRELQIALKEAEAARRDAESRAQRAVAELQALRVEMERRLQEKEEEMEALRKNMQFEIDRLAAALADAEARMKAEISRLKKKYQAEIAELEMTIDNLNRANLEAQKTIKKQADQLRALQSSFEDCQRQLQQTLDQYAIAQRKLSALSAELEDCKSALDTAIRVRKQAEADLEEAQGKIADLVSLNNNLTAIKGKLETDLSTCQADLDETTKELRAADDRANRAQQDAVRAMEQLHEEQEHSMKIDAMRKALEEHVKQLQVQIQEAEAAALLGGKRVIAKLETRIRDLEMALDEESRRHKETQACLRKKDRRVKEMQMQVDEEHKNFVMAQDTAERLAEKLNIYKRQLTEAESLTMQNLQRVRRYQHELEDAEGRAEQAESSLHLIRAKHRSSVSMGKSLSSKVYVMEEGHEY
91.9 % reduction of lysis: [1] | [2] | [3]
